± gives the uncertainty stated by the source.
Assay: self-splicing fitness, log relative to wild type (ln ratio); higher = more splicing; Tetrahymena group I intron in knt gene, E. coli kanamycin selection, DiMSum; sequences stand for … in CUCUCU…GGAGGGAAAAGUUAUCAGGCAUGCACCUGGUAGCUAGUCUUUAAACCAAUAGAUUGCAUCGGUUUAAAAGGCAAGACCGUCAAAUUGCGGGAAAGGGGUCAACAGCCGUUCAGUACCAAGUCUCAGGGGAAACUUUGAGAUGGCCUUGCAAAGGGUAUGGUAAUAAGCUGACGGACAUGGUCCUAACCACGCAGCCAAGUCCUAAGUCAACAGAUCUUCUGUUGAUAUGGAUGCAGUUCACAGACUAAAUGUCGGUCGGGGAAGAUGUAUUCUUCUCAUAAGAUAUAGUCGGACCUCUCCUUAAUGGGAGCUAGCGGAUGAAGUGAUGCAACACUGGAGCCGCUGGGAACUAAUUUGUAUGCGAAAGUAUAUUGAUUAGUUUUGGAGUACUCGUGGUCG
Method in brief: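 Pooled colonies went to amplicon sequencing on an Illumina HiSeq 2500 after six replicate transformations. The plates were LB agar with 100 μg/mL carbenicillin, 50 μM IPTG and 0.2% rhamnose, with or without 25 μg/mL kanamycin, incubated overnight at 37°C or 30°C. The E. coli BL21(DE3) library had all eight P1ex-region intron nucleotides randomised, the intron placed in the knt kanamycin-resistance gene on pET-22b(+). DiMSum fitness is the error-weighted combination of replicate fold changes, kanamycin against none, normalised to wild type.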

Sequence	self-splicing fitness (ln) (30 °C)	self-splicing fitness (ln) (37 °C)
AUGAAGCAAUAUUACGUUCU	-0.34 ± 0.076	0.201 ± 0.092
UCGCAGCAAUAUUACGGGAA	-2.44 ± 0.15	-1.49 ± 0.13
UGUAAGCAAUAUUACGCGGG	-4.06 ± 0.29	-0.563 ± 0.15
UGCUAGCAAUAUUACGUAAU	-2.42 ± 0.11	-1.34 ± 0.13
GCUCAGCAAUAUUACGCGUU	-0.447 ± 0.066	0.599 ± 0.084
CGUGAGCAAUAUUACGUCUU	-2.26 ± 0.27	–
AGGUAGCAAUAUUACGCCGU	-1.24 ± 0.019	-0.852 ± 0.035
CUGAAGCAAUAUUACGCUGU	-3.65 ± 0.2	-2.75 ± 0.24
CAAAAGCAAUAUUACGCUAC	-3.82 ± 0.26	-2.59 ± 0.25
UGGUAGCAAUAUUACGGGAG	-3.82 ± 0.43	-1.6 ± 0.13
UGGGAGCAAUAUUACGCACU	-3.4 ± 0.35	-1.76 ± 0.33
CGCGAGCAAUAUUACGUAUU	-3.09 ± 0.43	-2.6 ± 0.39
AGGAAGCAAUAUUACGUUAG	-2.95 ± 0.21	-3.24 ± 0.29
ACAAAGCAAUAUUACGGUGG	-3.64 ± 0.11	-2.07 ± 0.12
GAAAAGCAAUAUUACGAAAU	-1.74 ± 0.14	-1.09 ± 0.16
AAACAGCAAUAUUACGGGGC	-3.85 ± 0.16	-3.51 ± 0.19
CUCCAGCAAUAUUACGCAGA	-3.72 ± 0.35	-1.94 ± 0.2
AGCAAGCAAUAUUACGCUAG	-4.08 ± 0.25	-2.1 ± 0.22
CAGAAGCAAUAUUACGCUGU	-4.53 ± 0.37	-2.83 ± 0.21
GGCUAGCAAUAUUACGUAAA	-0.62 ± 0.084	-0.198 ± 0.1
CACUAGCAAUAUUACGAGAA	-2.74 ± 0.43	-1.67 ± 0.28
CAUGAGCAAUAUUACGUUUA	-3.69 ± 0.21	-2.84 ± 0.2
AAGGAGCAAUAUUACGCCCG	-1.88 ± 0.17	-1.01 ± 0.22
CGACAGCAAUAUUACGCGUA	-1.75 ± 0.28	-1.58 ± 0.15
GACAAGCAAUAUUACGCUUA	-1.52 ± 0.098	-0.863 ± 0.1

Sequence	self-splicing fitness (ln) (30 °C)	self-splicing fitness (ln) (37 °C)
UCAGAGCAAUAUUACGGUCC	-2.18 ± 0.24	–
UACUAGCAAUAUUACGGGAC	-3.54 ± 0.17	-2.72 ± 0.16
CCACAGCAAUAUUACGCUCG	-1.34 ± 0.077	-0.135 ± 0.088
AUAGAGCAAUAUUACGCUCA	-0.0598 ± 0.076	0.193 ± 0.12
AAUUAGCAAUAUUACGGUGU	-2.48 ± 0.091	-1.32 ± 0.098
CAUGAGCAAUAUUACGUAUU	-3.86 ± 0.46	-0.455 ± 0.16
CCUCAGCAAUAUUACGAUGU	-3.41 ± 0.15	-1.3 ± 0.12
GAGCAGCAAUAUUACGUCAA	-1.14 ± 0.24	-2.12 ± 0.25
GUCGAGCAAUAUUACGCGUC	-1.43 ± 0.15	-2.49 ± 0.2
UCCCAGCAAUAUUACGAUGU	-2.1 ± 0.088	-1.2 ± 0.12
GCCUAGCAAUAUUACGAAUA	-2.12 ± 0.43	–
GCCCAGCAAUAUUACGAGUG	-1.37 ± 0.076	-0.365 ± 0.085
CACUAGCAAUAUUACGGCGA	-2.43 ± 0.16	-1.61 ± 0.2
AACCAGCAAUAUUACGGCGU	0.196 ± 0.054	0.259 ± 0.068
GUGUAGCAAUAUUACGUUGA	-1.73 ± 0.14	-3.07 ± 0.36
GGGAAGCAAUAUUACGGUUC	-2.44 ± 0.18	-1.03 ± 0.22
CGCUAGCAAUAUUACGGCCC	-1.74 ± 0.19	0.036 ± 0.24
UCUCAGCAAUAUUACGAGUG	-0.746 ± 0.068	0.292 ± 0.086
CUUUAGCAAUAUUACGCAUA	-3.68 ± 0.37	–
UUCGAGCAAUAUUACGAAUG	-3.37 ± 0.47	-2.26 ± 0.31
CCGCAGCAAUAUUACGACAC	-2.84 ± 0.28	-2.71 ± 0.38
GUUCAGCAAUAUUACGGCCG	-2.57 ± 0.24	-0.72 ± 0.17
GGUUAGCAAUAUUACGUCGC	-1.25 ± 0.24	-0.982 ± 0.26
UUGAAGCAAUAUUACGGAGG	-0.866 ± 0.11	-0.64 ± 0.14
UAGUAGCAAUAUUACGUGAG	-1.3 ± 0.074	-1.87 ± 0.12

Sequence	self-splicing fitness (ln) (30 °C)	self-splicing fitness (ln) (37 °C)
CGCAAGCAAUAUUACGCCUG	-1.96 ± 0.13	-2.52 ± 0.23
GUGAAGCAAUAUUACGUGUU	-2.74 ± 0.1	-1.23 ± 0.085
UGGUAGCAAUAUUACGAGCC	-2.3 ± 0.32	-1.91 ± 0.26
AACGAGCAAUAUUACGAUAU	-3.13 ± 0.21	-1.3 ± 0.17
UCAGAGCAAUAUUACGCGUC	-2.62 ± 0.18	–
GAACAGCAAUAUUACGCAAA	-1.37 ± 0.12	-0.529 ± 0.11
AACCAGCAAUAUUACGGGAC	-2.39 ± 0.094	-2.11 ± 0.09
UGUCAGCAAUAUUACGCGAA	-0.455 ± 0.069	0.0551 ± 0.085
UACGAGCAAUAUUACGCUCU	-1.85 ± 0.21	–
GGACAGCAAUAUUACGCCUA	-0.825 ± 0.11	-0.478 ± 0.11
AUUGAGCAAUAUUACGCGUA	–	-1.87 ± 0.31
CGGUAGCAAUAUUACGGGUA	-2.65 ± 0.21	-3.01 ± 0.28
CGACAGCAAUAUUACGAGGC	-1.34 ± 0.13	-2.49 ± 0.31
UAGGAGCAAUAUUACGCAAG	–	-0.879 ± 0.22
GAUCAGCAAUAUUACGGAUA	-0.42 ± 0.067	0.0803 ± 0.077
UGACAGCAAUAUUACGGCUA	-0.14 ± 0.079	0.942 ± 0.11
ACUUAGCAAUAUUACGGCCC	-1.01 ± 0.34	-0.451 ± 0.29
UACCAGCAAUAUUACGGGAG	-1.64 ± 0.061	-1.01 ± 0.071
GAUUAGCAAUAUUACGUAAA	-2.19 ± 0.15	-0.793 ± 0.19
ACGCAGCAAUAUUACGCAUA	-2.18 ± 0.13	-0.994 ± 0.12
UGCUAGCAAUAUUACGCGAG	-4.4 ± 0.39	-2.11 ± 0.31
AUCAAGCAAUAUUACGGCGC	-1.01 ± 0.093	0.428 ± 0.14
ACGGAGCAAUAUUACGCACG	-3.77 ± 0.35	-2.71 ± 0.37
GAUGAGCAAUAUUACGUGAA	-3.72 ± 0.22	-1.91 ± 0.2
AGUCAGCAAUAUUACGGAUA	-0.982 ± 0.1	-0.318 ± 0.098

Sequence	self-splicing fitness (ln) (30 °C)	self-splicing fitness (ln) (37 °C)
UGCUAGCAAUAUUACGCCGG	-0.985 ± 0.22	-1.88 ± 0.5
GUUCAGCAAUAUUACGUCGU	-0.64 ± 0.098	0.241 ± 0.11
CCCCAGCAAUAUUACGAUGG	-3.49 ± 0.15	-2.82 ± 0.21
CGCCAGCAAUAUUACGAUAU	-3.92 ± 0.22	-2.14 ± 0.2
AGGAAGCAAUAUUACGGAUA	–	-2.01 ± 0.21
AAGGAGCAAUAUUACGUGGG	-2.68 ± 0.18	-2.68 ± 0.17
CUUUAGCAAUAUUACGCAGC	–	-2.27 ± 0.33
CUCGAGCAAUAUUACGUUAU	-3.99 ± 0.36	-2.72 ± 0.3
UGUGAGCAAUAUUACGCCAG	-2.23 ± 0.32	-2.01 ± 0.34
UAGUAGCAAUAUUACGAGUU	-3.96 ± 0.28	-2.75 ± 0.23
GAAUAGCAAUAUUACGCCGC	–	-1.45 ± 0.43
CCCUAGCAAUAUUACGGACG	-2.32 ± 0.097	-1.15 ± 0.11
AUUGAGCAAUAUUACGCUUA	-2.75 ± 0.16	-1.02 ± 0.13
AGCGAGCAAUAUUACGCGAU	-1.78 ± 0.25	-2.2 ± 0.36
CCCAAGCAAUAUUACGUCGA	-3.92 ± 0.26	-2.81 ± 0.2
UAACAGCAAUAUUACGACGU	-1.16 ± 0.071	-0.452 ± 0.091
AGUAAGCAAUAUUACGCCUC	–	-1.7 ± 0.38
UCGUAGCAAUAUUACGUCUC	-2.93 ± 0.19	-2.29 ± 0.22
GGAGAGCAAUAUUACGUCCA	-2.78 ± 0.2	-0.872 ± 0.18
CCAAAGCAAUAUUACGCUAC	-2.17 ± 0.23	-1.58 ± 0.27
CACAAGCAAUAUUACGGCCC	-2.49 ± 0.22	-1.82 ± 0.31
GUAUAGCAAUAUUACGGUUC	-1.22 ± 0.1	-0.0871 ± 0.12
UAUUAGCAAUAUUACGUUAG	-2.33 ± 0.18	-1.62 ± 0.17
AAGGAGCAAUAUUACGACGA	-1.94 ± 0.15	-0.382 ± 0.11

Reference: the supplement of paper PMC7877785
